Laboratory results taken from patent publication US20230279117A1 (published 2023).
Substitutions are numbered along the chain they refer to. Read-outs that look alike come from different tables or passages of the source.

B1: hu333-1A Fab (Fab)
heavy (part 1 of 2): EVQLVESGGGLVQPGGSLRLSCAVSGFSLTSYGVHWVRQAPGKGLEWVAVIWAGGSTNYNSALMSRLTISKDNAKNSVYLQMNSLRAEDTAVYYCAKPYGNSAMDYWGQGTLVTVSS
heavy (part 2 of 2): HHHHHHHH
light: DIQMTQSPSTLSASVGDRVTITCKASQDVGIVVAWYQQKPGKAPKLLIYWASIRHTGVPSRFSGSGSGTEFTLTISSLQPDDFATYYCQQYSNYPLYTFGQGTKLEIK
notes: not shown: human IgG2 CH1 (printed IgG2a-CH1); human constant region of kappa chain
B2: hu333-4A2 Fab (Fab)
heavy (part 1 of 2): B1 heavy (part 1 of 2) with N60V, S61D, A62S, L63V, M64K, S65G, L67F, S77T, N101T
heavy (part 2 of 2): HHHHHH
light: B1 light with T10S, L105V
notes: not shown: human IgG1-CH1; human constant region of kappa chain
B3: hu333-4B2 Fab (Fab)
heavy (part 1 of 2): EVQLVESGGGLVQPGGSLRLSCAVSGFSLTSYGVHWVRQAPGKGLEWVAVIWAGGSTNYADSVKGRFTISKDTSKNTVYLQMNSLRAEDTAVYYCAKPYGTSAMDYWGQGTLVTVSS
heavy (part 2 of 2): HHHHHH
light: B1 light with T10S, L105V
notes: as for B2
B4: hu333-4B2-IgG1mc (antibody)
heavy: EVQLVESGGGLVQPGGSLRLSCAVSGFSLTSYGVHWVRQAPGKGLEWVAVIWAGGSTNYADSVKGRFTISKDTSKNTVYLQMNSLRAEDTAVYYCAKPYGTSAMDYWGQGTLVTVSSASTKGPSVFPLAPSSKSTSGGTAALGCLVKDYFPEPVTVSWNSGALTSGVHTFPAVLQSSGLYSLSSVVTVPSSSLGTQTYICNVNHKPSNTKVDKKVEPKSCDKTHTCPPCPAPPAAAPSVFLFPPKPKDTLMISRTPEVTCVVVDVSHEDPEVKFNWYVDGVEVHNAKTKPREEQYNSTYRVVSVLTVLHQDWLNGKEYKCKVSNKALAAPIEKTISKAKGQPREPQVYTLPPSRDELTKNQVSLTCLVKGFYPSDIAVEWESNGQPENNYKTTPPVLDSDGSFFLYSKLTVDKSRWQQGNVFSCSVMHEALHNHYTQKSLSLSPGK
light: DIQMTQSPSSLSASVGDRVTITCKASQDVGIVVAWYQQKPGKAPKLLIYWASIRHTGVPSRFSGSGSGTEFTLTISSLQPDDFATYYCQQYSNYPLYTFGQGTKVEIKRTVAAPSVFIFPPSDEQLKSGTASVVCLLNNFYPREAKVQWKVDNALQSGNSQESVTEQDSKDSTYSLSSTLTLSKADYEKHKVYACEVTHQGLSSPVTKSFNRGEC
notes: also called hu333-4B2-IgGlmc
B5: hu333-4A2-IgG1mc (antibody)
heavy: B4 heavy with A60V, T73N, S74A
light: B4 light
notes: also called hu333-4A2-IgGlmc
B6: hu333-4B2-IgG1mf (antibody)
heavy: B4 heavy with A236G
light: B4 light

Experiments:
[1] = molecular target: T1, full length human PD-L1 expressed on cells (human, UniProt Q9NZQ7 19-290); assay: FACS competition with PD-1/Fc on HEK293/PD-L1 cells
T1 construct: in HEK293/OS8/PD-L1 co-expressed with the membrane anti-CD3 scFv OS8; also called HEK293/PD-L1; HEK293/OS8/PD-L1

[2] = molecular target: T1, full length human PD-L1 expressed on …; assay: cell-based or functional assay
[3] = molecular target: T1, full length human PD-L1 expressed on …; assay: FACS competition with CD80/Fc on HEK293/PD-L1 cells
[4] = molecular target: T1, full length human PD-L1 expressed on …; assay: cell-based or functional assay; remark: listed apart in the source
[5] = molecular target: T1, full length human PD-L1 expressed on …; assay: FACS competition with CD80/Fc on HEK293/PD-L1 cells; remark: listed apart in the source
human PD-L1-ECD/His [6] = molecular target: T2, human PD-L1-ECD/His (human, UniProt Q9NZQ7 19-238); assay: SPR (BIAcore T-200), PD-L1/His on CM5 chip, Fab injected
T2 construct: also called PD-L1/His; human PD-L1/His
Method: (§1) For affinity determinations of anti-PD-L1 Fabs, SPR assays were performed using BIAcore™ T-200 (GE Life Sciences). Briefly, human PD-L1/His was coupled to an activated CM5 biosensor chip (Cat. No. BR100530, GE Life Sciences) to achieve approximately 100-200 response units (RU), followed by blocking un-reacted groups with 1 M ethanolamine. A serial dilutions of 0.12 nM to 90 nM Fab samples were injected, mixed into the SPR running buffer (10 mM HEPES, 150 mM NaCl, 0.05% Tween20, pH7.4) at 30 µL/minute, and binding responses on human PD-L1/His were calculated by substracting of RU from a blank flow-cell. Association rates (kₒₙ) and dissociation rates (koff) were calculated using the one-to-one Langmuir binding model (BIA Evaluation Software, GE Life Sciences). The equilibrium dissociation constant (Kd) was calculated as the ratio koff/kₒₙ.

[7] = molecular target: T3, cynomolgus monkey PD-L1/His (cynomolgus monkey (Macaca fascicularis), UniProt G7PSE7 19-239); assay: SPR (BIAcore T-200), Fab, monkey PD-L1; koff may be too slow to measure
T3 construct: not shown: His tag

[8] = molecular target: T3, cynomolgus monkey PD-L1/His; assay: SPR (BIAcore T-200), Fab, monkey PD-L1
human PD-L1-ECD/His [9] = molecular target: T2, human PD-L1-ECD/His; assay: SPR (BIAcore T-200), Fab, human PD-L1
Method: as §1
(§2) For affinity determinations of anti-PD-L1 Fabs, SPR assays were conducted using BIAcore™ T-200 instrument (GE Life Sciences, Shanghai, China) as described earlier. Association rates (kₒₙ) and dissociation rates (koff) were calculated using the one-to-one Langmuir binding model (BIA Evaluation Software, GE Life Sciences). The equilibrium dissociation constant (Kd) was calculated as the ratio koff/kₒₙ.

human PD-L1-ECD/His [10] = molecular target: T2, human PD-L1-ECD/His; assay: SPR (BIAcore T-200), PD-L1/His on CM5 chip, Fab injected; koff may be too slow to measure
Method: as §1

human PD-L1-ECD/His [11] = molecular target: T2, human PD-L1-ECD/His; assay: SPR (BIAcore T-200), Fab, human PD-L1; koff may be too slow to measure
Method: as §1, §2

[12] = molecular target: T1, full length human PD-L1 expressed on …; assay: FACS competition with PD-1/Fc on HEK293/PD-L1 cells; remark: listed apart in the source
[13] = molecular target: T3, cynomolgus monkey PD-L1/His; assay: ELISA, 200 ng PD-L1 protein coated per well
Method: The monkey PD-L1/His and murine PD-L1/His were expressed and purified in a similar way to the human PD-L1/His as described earlier. […] The synthesized full length mAb was named as Y1-IgG1mc. The ELISA assay was performed essentially in the same way as described in the previous section. Briefly, 200 ng of PD-L1 protein was coated on each well of Nunc MaxiSorp ELISA plate (Cat. No. 442404, Nunc, Thermo Fisher). After washing and blocking, indicated concentrations of anti-PD-L1 mAbs were added and incubated at room temperature for 1 hour. After washing, the bound anti-PD-L1 mAbs were detected using a HRP-conjugated goat anti-human Fc antibody (Cat. No. A0170, Sigma).

T3 sequence (G7PSE7 entry or part of it): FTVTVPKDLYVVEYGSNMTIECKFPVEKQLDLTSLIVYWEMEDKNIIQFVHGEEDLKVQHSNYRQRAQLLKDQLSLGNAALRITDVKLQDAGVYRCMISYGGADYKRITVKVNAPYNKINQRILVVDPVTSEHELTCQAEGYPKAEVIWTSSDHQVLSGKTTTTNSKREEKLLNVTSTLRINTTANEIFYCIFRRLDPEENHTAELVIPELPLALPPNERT
T1 sequence (Q9NZQ7 19-290 limits assumed): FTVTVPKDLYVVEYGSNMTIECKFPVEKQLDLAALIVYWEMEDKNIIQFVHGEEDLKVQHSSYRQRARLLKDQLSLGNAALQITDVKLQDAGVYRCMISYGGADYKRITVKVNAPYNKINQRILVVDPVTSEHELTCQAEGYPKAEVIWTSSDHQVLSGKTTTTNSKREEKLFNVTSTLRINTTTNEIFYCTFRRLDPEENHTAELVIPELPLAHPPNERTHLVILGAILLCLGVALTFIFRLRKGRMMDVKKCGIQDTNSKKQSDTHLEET
T2 sequence (Q9NZQ7 19-238): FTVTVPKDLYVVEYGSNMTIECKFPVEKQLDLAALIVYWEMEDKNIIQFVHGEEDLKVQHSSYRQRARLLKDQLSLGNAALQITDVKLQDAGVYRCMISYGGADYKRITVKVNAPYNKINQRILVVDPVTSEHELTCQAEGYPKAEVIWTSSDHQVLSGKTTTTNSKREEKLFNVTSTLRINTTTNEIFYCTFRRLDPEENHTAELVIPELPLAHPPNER

Binder	IL-2 release in HuT78/P3Z, IC50 [4]	IL-2 release in HuT78/PD-1, EC50 [4]	IC50 [5]	Kd (human PD-L1-ECD/His [6])	kon (human PD-L1-ECD/His [6])	koff [7]	Kd [8]	kon [8]	Kd (human PD-L1-ECD/His [9])	kon (human PD-L1-ECD/His [9])	koff (human PD-L1-ECD/His [10])	koff (human PD-L1-ECD/His [11])	IC50 [12]	binding result [13]	further results
B1	–	–	–	–	–	–	–	–	–	–	–	–	–	–	IC50 [1]: 0.057 µg/mL; IL-2 release in HuT78/P3Z, IC50 [2]: 0.012 µg/mL; IL-2 release in HuT78/PD-1, EC50 [2]: 0.066 µg/mL; IC50 [3]: 0.049 µg/mL
B2	0.005 µg/mL	0.05 µg/mL	0.045 µg/mL	2.65 pM	3.88e+06 M⁻¹ s⁻¹	9.3e-06 s⁻¹	2.91 pM	3.19e+06 M⁻¹ s⁻¹	2.65 pM	3.88e+06 M⁻¹ s⁻¹	1.03e-05 s⁻¹	1.03e-05 s⁻¹	0.05 µg/mL	–	–
B3	0.016 µg/mL	0.058 µg/mL	0.062 µg/mL	3.5 pM	3.78e+06 M⁻¹ s⁻¹	8e-06 s⁻¹	2.5 pM	3.2e+06 M⁻¹ s⁻¹	3.5 pM	3.78e+06 M⁻¹ s⁻¹	1.32e-05 s⁻¹	1.32e-05 s⁻¹	0.053 µg/mL	–	–
B4	–	–	–	–	–	–	–	–	–	–	–	–	–	binds	–
B5	–	–	–	–	–	–	–	–	–	–	–	–	–	binds	–
B6	–	–	–	–	–	–	–	–	–	–	–	–	–	binds	–
